This data set can be described thus: label from the status in PepcDB records.
“MHFTRALRIQLIPSFFFRAIYPLVVLLILLHAQSGLAETIYRSTDSHGRTLYSDIPTPAAKPLQPATPPARSKYRVTRVIDGDTIVLENNKRVRLLGINAPETGNRYHPGEPGGADAKKWLRGKLQGRSVYLEHDRQTHDHYKRMLAHLYLPDGEHINLSLVEKGLAIANLIPPNLLHANTLIRAQQRAETRKLGIWSMQHYQPRPLIKLTEKPFGWQRYRVKAKVLKRNHRFSRLIISDNLDLSFANRDLALFPPLETYLNRPLEVRGWVSRRKNHFSIRIQHPSALILY”: the protein production entry is “failed”.

Take “MHGVEFAPLERQHGSQVLALLRGTLLVPLPRLHQRLEEAYERDARLGLAQVALCRLAGNAEKVVGVLLARVATRRTCCAQVYIDAVAVDAVFQGQGIGSRLLLRVLTPCLPDGLEVREVFLHTPLQATELVAFYRSCGFESDDEVIDNYYPRRWMPQAQALVLRWRPPTAAQHQHEERKGPQDADVS”: the protein production entry was “not failed”.

Regarding “MHIPLWHSRVPSATLSRSHSVLLPLSLTAHSPKRARLVAMSTNPEIPQWFALTPRVWTTSVEPESVTCGLVAGEDHVLLIDTGSTPEQGHTLAMSAARMLGRPVDRIVVTHHHYDHSGGLPGITDAEVWMHEAALAHCPDLHVDHPVSLMAYVNLGGLGAEVIHPGPAHTDGDLIVIVRDEKITFVGDLVETAGEPQSDGTTDVRGWPRAIDSVITGTDGAGLYVPGHGQPIDATDVMNQRAQLAERIPTNIPLTDRHIPLP”, the protein production entry is listed as “failed”.

As to “MHKYRLVAKKGEGTFSEVLKAQCIKNGKYVAIKCMKNHFDSLDQVNNLREIQALRRLSPHANIIKLLEVLYDQPTGRLALVFELMDMNIYELIRGRRHYVAEERIKNYMYQLMKSMDHMHRNGIFHRDIKPENILIMDDCLKLADFGSCRGIYSKQPYTEYISTRWYRAPECLLTDGYYNYKMDMWGVGCVFFEIVSLFPLFPGTNELDQITKIHNILGTPPPDLLAKMKKRSAHMDFNFPPKEGSGVAKLIPHVNPECVDLIVKLLMYNPDERLSARQALRHPYFRDLREAEKRQKALLAPDVSNHFTAMEADKARQQQTVSSTGSDHEHPTSAGGDGGAGTGAVGTHDGSAAAAAAAAALPSISGARGHAGPEGGHDNDMG”, the protein production entry is reported as “not failed”.

On to “MHLVNIRNQPLGNTIIQVLGVMAFGLFAAVVYMKTSNLIFAIVVHAMNDFMAIMASSGSLSSQQTNPLTILYEWFIFGTLAFALFYTGWTQREKFIAAIQERSPQLTARKLPTLAQSSTFRRIFALVSMIYGILILPTMLLFSKLSTSAGSRAEIANKALPIYLLFLLGIALYIFLIVFFDFHLGNLCWLLLPYIGGPVFALIALVNGARPLTEKTNQSKTINNKTPN”, for which the protein production result is reported as “failed”.

Regarding “MHMALIHSILMGAVAGMRSMTPLAAVANAARTGKLPADNGAPALLANPLASAGMLALAGGELAGDKMKTAPDRIVLPGMIARIATGVIVGTALAPREQRGIAALLGATTAVAAAYLTFNARMRAIERYGQTSTGVVEDAISVGAATLIVRDAAKR”, the protein production result is listed as “failed”.

“MHNHNNRLVITPGEPAGVGPDLAITLAQQDWPVELVVCADPALLLARASQLNLPLQLREYQADQPAIAQQAGSLTILPVKTAVNVVPGKLDVGNSHYVVETLAKACDGAISGEFAALVTGPVQKSIINDAGIPFIGHTEFFADRSHCQRVVMMLATEELRVALATTHLPLLAVPGAITQASLHEVITILDNDLKTKFGITQPQIYVCGLNPHAGEGGHMGHEEIDTIIPALNTLRQQGINLIGPLPADTLFQPKYLQHADAVLAMYHDQGLPVLKYQGFGRAVNITLGLPFIRTSVDHGTALELAATGTADVGSFITALNLAIKMINNSNE”: the protein production result is on record as “not failed”.

As to “MHNLVPAPKQTQSVLIKNATVHTVIQGVLTNTDVLIENGKISALGPQLSTNTTASTQVVDASGKHLYPGLIALDTSLGLEHHHHHH”, the protein production entry is “failed”.

Regarding “MHPKTQQILEVFEEINKIPRRSKHEEQISTWLQEWGRSRGFEVKADSLNNVLIKVPATTGYEDSPTLILQGHMDMVCEKCKDSIHDFSRDPIRCICDGDWMRGDGTSIGADDGIALALGLVMAEAGKKGEIGHPPLELLFTVDEETGLTGARGLETGFFEGKILLNLDSEDEGIFVIGCAGGQNSQITLPVEWELLDFKEENLFRFFRLSVEGLEGGHSGTEINKQRANGIQLLSLALVKLRGKLGIENVRLVLLNGGTVHNAIPSTAEAFIALHGEKLEKAAETMSDIRHAFKAEYAKTDPGLILNFEEISREIIFEVAEDKIPREEVSHVRVFSLETEEKLLELILGLPHGVYRMSETIHGLVETSNNLATVRTAGNEVIIVSSQRSSNNLRLAEISGKVEAISKLAGAWVEHEPGYPAWEPNLKSELILKCKQVYTETFGKEPEIEVIHAGLECGIIGSAHEGMEMISFGPTIKDAHSPAEKIFVPSIEKVWIFLENLFKTYC”, the protein production entry was “failed”.

Regarding “MHPVLIFLFALIAILLFTAKFRLHPFLSLVLVSLLTGILAGEPIRTIEAVTEGLGSVFSRFAIIITSGSIIGLLLQKTGGMSLIASDITRFFKNPLLALSFLGFLFSVPTMCYILAYVIFIPIAKELSSRFNYPPISTATALALGAVASFNLVYPSPVIISAAEELSANRDMLILLGFLTAVPTSFSGYLYARSLGKAEVSGMNEGGVIREKTIVKEKKDLSQENGALQRTENRKPGRFEAYAPIFIPLFLILFEAVLNNPNTLFTFLGNPNVALLIGVLLSIFSGRVLGLPMIRVQVEKAIKRSGVVLLDLCGGGALGATLAMTGAGEALGKFFLQFNLPHILVPFLVAAALQTVQGSRVVTMLVAPSLLLPLVPELGLPPEILILSMASGTFMISHVNDPFFWIFGELAELTPSEVFRSNTLGNALMGVVSFLIVSGIYFFFY”, the protein production result is “failed”.

Regarding “MHRLRAAETGDIEAMTDLLLRHGPNPWNHLPEEGVRAHLRAIADGEVRAVLAERDDRLLGFASFRRTEDFAHYQPQRADAPRAYICEAVVHPAAAGQGLGSALLEAVLAQLADEGIEDVYIDRHEENLASAGMMRKAGFVELETYADPARRPNGSGRSTVCHRNLSLQRRAVR”, the protein production entry is listed as “failed”.

Take “MHRSIRFTFDDRVPRYWHAGRAHTTRFFDCLSFMFPQGEKIFIESVVHFRHKLDKDSALDKAVDDFIYQEASHMREHRAYNQRLCAQGAPVETLERMLLRRRKESARLPASFRLALTASLEHITAILSDQLLRNPAYLKNADPTMAGLWRWHALEEIEHKAVAYDVLCTVERNPLWRYLLRCVAMLSLSVYFTFDLGYFTYHLVRGDKQHRNWREWLRLQWWLFVNPGLLSRIVPAGLFWFVPGFHPNRIDTRALLDTARQALDEQR”: the protein production entry is “failed”.

In the case of “MHSLYLGVVKVMAKIILVYANCVNSTAKGDFALAGQIAKDLVREKTSDDIDVVLTSTLDGIARFESLYGKAVDGRVIIEGTSVGLCALELFESVDNEVVAFIEANRCKYAPSDILKRVLSPDSKFLFIGAANQKAIATGDKFTKSWLYISHKGDQPNVYEHFDEDDSLIQSVGLGDDRLGLPSLPKVDELPEMNSTQSQKIPSGEYGFMYLAAVHGIDDVYLMNQYMSLTEMGQYVLVGEYAKQSKEVQMVLHSLQYKGSSVSLTMPQIFFHDSVDNCLMRNMVSKSSGPLVVSTGVMSSIEAMQDGKLTYYQTMSNNTQFVASYLIAVKSICSSDTTLFGSMPKLIIDLSNLLFAEKPLKESQMKEIKSLLGMSSVTSRLGEMNKRIIAKANGTVAGELLSFIGKPKTTQSHKQCISVCMSLRKSGETTSPIFDQALRRAAAWGRLFELKVLIASMSTSDLNKKDKTGNQYTALHWAVMQGHLDCARLLVKSGASVDIQDKSGKSPLHYAIKRGDKETIKLLVQAGASLEIMDDSGAKPCDGSESWVPEYIKSCYEKSGHKSSSLF”, the protein production result is “failed”.

Consider “MHSTPKRVLLAGATGLTGEHLLDRILSEPTLAKVIAPARKALAEHPRLDNPVGPLAELLPQLDGSIDTAFCCLGTTIKEAGSEEAFRAVDFDLPLAVGKRALEMGARHYLVVSALGADAKSSIFYNRVKGELEQALQEQGWPQLTIARPSLLFGPREEFRLAEILAAPIARILPGKYHGIEACDLARALWRLALEEGKGVRFVESDELRKLGK”, for which the protein production entry is “not failed”.

For the sequence “MHSVHPTPKFSIITVTYNAEKVLEDTIQSVISQTYHHVEYIIVDGASKDGTLSIIDRYRPRITTVVSEPDKGLYDAMNKAISLASGDYLCFLNAGDCFHEDDTLQQMVHSIHGSVLPDVIYGETAIVDKDRHFLHMRRLSAPEKLDWKSFKQGMLVCHQAFFARHTLVEPYDLSYRYSADFDWCIRIMKKAYTLHNTHLTIIDYLDEGMTTQNRKASLKERFRIMAKHYGWISTAAHHAWFVLRLIIKPGQLEHHHHHH”, the protein production result is recorded as “not failed”.

The values above are taken from a protein production outcome set (Wang et al. 2014).
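Further: failed if final PepcDB status was selected cloned or expressed and not failed if soluble or beyond.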
